Measurements reported in patent US6579848B1, “Depigmenting activity of agouti signal protein and peptides thereof” (The United States of America as represented by the …, priority 1995, dated 2003).

B1: agouti protein: Recombinant murine agouti signal protein purified from a baculovirus expression system (protein)
chain: MDVTRLLLATLVSFLCFFTVHSHLALEETLGDDRSLRSDSSMNSLDFSSVSIVALNKKSKKISRKEAEKRKRSSKKKASMKKVARPPPPSPCVATRDSCKPPAPACCDPCASCQCRFFGSACTCRVLNPNC

Columns and labels:
[1] = system: TRP1; test: Northern blotting of TRP1 RNA in melan-a cells; assay type: cell-based, murine; settings: for RNA level of TRP1: 10 nM, 5 days
Protocol: These techniques were performed as described previously (Aroca et al., 1993). Briefly, 2.0 μg of mRNA, isolated using a total RNA isolation kit and mRNA purification kit (Promega, Madison, Wis.), were electrophoresed and then blotted to Sure-Blot nylon membranes (Oncor, Gaithersburg, Md.), hybridized with ^32P-labeled probes, dehybridized and rehybridized with other probes again as necessary. TYRS-J, the probe specific for tyrosinase, was kindly provided by Drs. H. Yamamoto and T. Takeuchi, Sendai, Japan and is described in Yamamoto et al Japan J. Genetics Vol 62:271-274, 1987. pMT4, specific for TRP1, was provided by Dr. S. Shibahara, Sendai, Japan and is described in Shibahara, S. et al Nucleic Acid Res. Vol 14:2413-2427, 1986. TRP2a, specific for TRP2 was provided by Dr. I. Jackson, Edinburgh, Scotland and is described in Jackson, I et al. EMBO Vol 11:527-535, 1992. gp100, specific for silver, was provided by Dr. Y. Kawakami, Bethesda, Md. and is described in Kawakami et al PNAS, Vol. 91, 6458-6462, 1994.
Recombinant agouti protein was purified from baculovirus system by Dr. Michael Ollmann in Dr. Gregory Barsh's laboratory by methods known in the art. 2×10^6 cells were seeded per 15 cm diameter dish. The medium was changed everyday, and fresh agouti protein and/or αMSH added everyday usually at 10 nM. To examine transcriptional regulation, total RNA was isolated and Northern blotting performed by methods described in Example 1. The A26 probe to the MSH-R was provided by Dr. R. Cone and is described in Mountjoy et al. Science 257:1248-1251, 1992. At the translational level, metabolic labeling was used in conjunction with immunoprecipitation as described in Example 1. Western blotting and enzyme assay was used to examine function.
The effects of agouti protein on expression of TRP1, TRP2, and the MSH receptor were examined.
Total RNA was extracted from cells using an RNeasy total RNA isolation kit (QIAGEN, Catsworth, Calif.), following the manufacturer's instructions. […]

[2] = system: TRP2; test: DOPAchrome tautomerase enzyme assay on extracts of treated melan-a cells; assay type: cell-based, murine; settings: extracts of melan-a cells cultured 5 days; 10 nM
Protocol: Assays for melanogenic catalytic activities as described below were carried out at pH 6.8, 37° C. for 60 minutes. (1) Tyrosine hydroxylase activity was measured using the [^3H]tyrosine assay (Hearing and Ekel, 1976; Hearing, 1987). This method specifically measures the tritiated water produced during the hydroxylation of tyrosine to DOPA. (2) DOPA oxidase activity was measured using incorporation of [3-^14C]DOPA into acid-insoluble melanin as detailed previously (Aroca et al., 1993). (3) DOPAchrome tautomerase activity was measured by HPLC as the disappearance of DOPAchrome substrate and the production of DHICA rather than DHI; data are converted to pmol products by comparison with known standards. The HPLC assay was detailed previously (Palumbo et al., 1987; Tsukamoto et al., 1992). (4) DHI oxidase and DHICA oxidase activities were measured by HPLC as the disappearance of these substrates from reaction mixtures compared to controls for spontaneous auto-oxidation; data are converted to pmol by comparison with known standard (Aroca et al., 1993). (5) Melanin production was measured using incorporation of [^14C]tyrosine into acid-insoluble melanin, also as detailed previously (Hearing and Ekel, 1976; Hearing, 1987); pmol melanin produced are calculated from the radioactive product. […]

Molecule	RNA level of TRP1 [1]	DOPA chome tautomerase [2] [pmol/μg protein/hr]	level of TRP1 RNA ([1]; 24 hours, different concentrations)
α-melanocyte stimulating hormone [MSH, reference compound]	no significant increase	555.0	
B1	nearly a fivefold decrease	0.0	reduced, but not to the same extent as tyrosinase RNA
